The data set concerns the molecule itself. Nature of the data set: pull-down; GST- and MBP-tagged TMEM25-ECR incubated for 1 h at 4 °C in 150 mM NaCl, 0.1% Triton X-100, 20 mM Tris-HCl pH 7.6; glutathione-Sepharose beads; CBB staining or anti-MBP immunoblot. (In western blotting, separated proteins are transferred to a membrane and probed.)

B1: TMEM25-ECR (residues 27–220), GST- or MBP-tagged (domain or fragment, human, UniProt Q86YD3 27-220, looked up)
chain: ELEPQIDGQTWAERALRENERHAFTCRVAGGPGTPRLAWYLDGQLQEASTSRLLSVGGEAFSGGTSTFTVTAHRAQHELNCSLQDPRSGRSANASVILNVQFKPEIAQVGAKYQEAQGPGLLVVLFALVRANPPANVTWIDQDGPVTVNTSDFLVLDAQNYPWLTNHTVQLQLRSLAHNLSVVATNDVGVTSAS
notes: extracellular region (ECR), residues 27–220; bacterially expressed, non-glycosylated; also called GST–TMEM25-ECR; MBP–TMEM25-ECR; source: E. coli BL21, purified (glutathione-Sepharose 4B or amylose resin)
As to B1, the binding result is given as “binds”.

The values are drawn from publication PMC10897455, “TMEM25 is a Par3-binding protein that attenuates claudin assembly during tight junction development” (EMBO Reports, 2023).
